Measured values taken from the RNAGym collection of RNA variant scans (doi:10.1073/pnas.2313332121).

B1: TPR t1 (parent)
chain: GACCAAUCUGCCCUCAGAGCUCGAGAACAUCUUCGGAUGCAGAGGAGGCAGGCUUCGGUGGCGCGAUAGCGCCAACGUCCUCAACCUCCAAUGCAUCCCACCACAUGAUGAUGCCUGAAGAGCCUUGGUUUUUUG

Variants of: B1
Assay: polymerase ribozyme fitness, log enrichment relative to wild type (log ratio); higher = more active; in vitro selection for triplet polymerase activity
Outline: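 Each subunit of a heterodimeric triplet polymerase ribozyme was represented by a PCR-built, transcribed mutant library that underwent triplicate single-round in vitro selection with frozen incubation at −7 °C. Extended constructs were recovered by gel excision, streptavidin-bead capture and RT-PCR, and Illumina sequencing of input and output libraries kept genotypes with ≥10 input reads and ≥1 read per output. Fitness is the logarithm of genotype enrichment relative to wild-type enrichment, from inverse-variance-weighted replicate averages, with a logarithm base of 2.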

| Variant | polymerase ribozyme fitness (log ratio) |
| --- | --- |
| GACCAAUCUGCCAUCAGAGCUCGAGAACAUCUUCGGAUGCAGAGGAGGCAGACUUCGGCGGCGCGAUAGCGCCAACGUCCUCAACCUCCAAUGCAUCCCACCACAUGAUGAUACCUGAAGAGCCUUGGUUUUUUG [C13A G52A U59C G113A] | -3.69 |
| GACCAAUCUGCCAUCAGAGCUCGAGAACAUCUUCGGAUGCAGAGGAGGCAGGCUUCAGUGGCGCGAUAGCGCCAACGUCCUCAACCUCCAAUGCAUCCCACCACAUGAUGAUGCCUGAAGAGCCUUCGUUUUUUG [C13A G57A G127C] | -3.7 |
| GACCAAUCUGCCAUCAGAGCUCGAGAACAUCUUCGGAUGCAGAGGAGGCAGGCUUCGGUGGCGCGAUAGCGCCAACGUCCUCAACCUCGAAUGCAUUCCACCACAUGAUGAUGCCUGAAGAGCCUUGGUUUUUUG [C13A C89G C97U] | -3.27 |
| GACCAAUCUGCCAUCAGAGCUCGAGAACAUCUUCGGAUGCAGAGGAGGCAGGCUUCGGUUGCGCGAUAUCGCCAACGUCCUCAACCUCCAAUGCAUCCCACCACAUGAUGAUGCCUGAAGAGCCUUGGUUUUUUG [C13A G60U G69U] | -4.92 |
| GACCAAUCUGCCAUCAGAGCUCGAGAACAUCUUCGGAUGCAGAGUAGGCAGGCUUCGGUGGCGCGAUAUCGCCAACGUCCUCAACCUCCAAUGCAUCCCACCACAUGAUGAUGCCUGAAGAGCCUUGGUUUUUUG [C13A G45U G69U] | -1.92 |
| GACCAAUCUGCCAUCAGAGCUCGAGAACAUCUUCAGAUGCAGAGGAGGCAGGCUUCGGUGGCGCGAUAGCGCCAACGUCCUCAACCUCCAAUGCAUCCCACCACAUGAUGAUGCCUGAAGAGCGUUGGUUUUUUG [C13A G35A C124G] | -3.52 |
| GACCAAUCUGCCAUCAGAGCUCGAGAACAUCUUCGGAUGCAGAUGAGGCAGGCUUCGGUGGCGCGAUAGCGUCAACGCCCUCAACCUCCAAUGCAUCCCACCACAUGAUGAUGCCUGAAGAGCCUUGAUUUUUUG [C13A G44U C72U U78C G128A] | -6.14 |
| GACCAAUCUGCCAUCAGAGCUCGAGAACAUCUUCGGAUGCAGAGGAGGCAGGCUUCGGUGACGCGAUAGCGCCAACGUCCUCAACCUACAAUGCAUCCCACCACAUGAUAAUGCCUGAAGAGCCUUGGUUUUUUG [C13A G61A C88A G110A] | -2.92 |
| GACCAAUCUGCCAUCAGAGCUCGAGAACAUCUUCGGAUGCAGAGGAAGCAGGCUUCGGUGGCGUGAUAGCGCCAACGUCCUCAACCUCCAAUUCAUCCCAGCACAUGAUGAUGCCUGAAGAGCCUUGGUUAUUUG [C13A G47A C64U G93U C101G U131A] | -5.14 |
| GACCAAUCUGCCAUCAGAGCUCGAGAACAUCUUCGGAUGCAGAGGACGCAGGCUUCGGUGGCGCGAUAGCGCCAACGUCCUCAACCUCCAAUGCAUCCCACCACAUGAUGAUGCCUGAAGAGCCUUGGUUUUUUG [C13A G47C] | -3.14 |
| GACCAAUCUGCCAUCAGAGCUCGAGAACAUCUUCGGAUGCAGAAGAGGCAGGCUUCGGUGGCGCGAUAGCGCCAACGUCCUCAACCUCCAAUGCAUCCCACCACAUGAUGAUGCCUGAAGAGCCUUCGUUCUUUG [C13A G44A G127C U131C] | -2.25 |
| GACCAAUCUGCCAUCAGAGCUCGAGAACAUCUUCGGAUGCAGAGGAGGCAGGCUUCGGUGGCGCGAUAGCGCCAACGUCCUCAACCUCCAAUGCAUCCCACCACAUGAUGAUGCUUGAAGAGCCUUGGUUUUUUG [C13A C115U] | -3.06 |
| GACCAAUCUGCCAUCAGAGCUCGAGAACAUCUUCGGAUGCAGAGGAUGCAGGCUUCGGUGGCUCGAUAGCGCCAACGUCCUCAACCUCCAAUGCAUCCCACCACAUGAUGAUGCCUGAAGAGCCUUGGUUUUUUG [C13A G47U G63U] | -4.2 |
| GACCAAUCUGCCAUCAGAGCUCGAGAACAUCUUCGGAUGCAGAGGAGGCAGGCUUCGGUGGCGCGAUAGCGCCAACGUCCUCAACCUACAAUGCAUCCCACCACAUGAUGAUGCCUGAAGAGCCUUGGUUUUUUG [C13A C88A] | -2.19 |
| GACCAAUCUGCCAUCAGAGCUCGAGAACAUCUUCGGAUGCAGAGGAGACAGGCUUCGGUGGCGCGAUAGCGCCAACGUCCUCAACCUCCAAUGCAUCCCACCACAUGAUGAUGUCUGAAGAGCCUUGGAUUUUUG [C13A G48A C114U U129A] | -5.75 |
| GACCAAUCUGCCAUCAGAGCUCGAGAACAUCUUCGGAUGCAGAGGAGGCAGGCUUCGGUAGCGCGAUAGCGCCAACGUCCUCAACCUCCAAUGCAUCCCACCACAUGAUGAUGCCUGAAGAGCCUUGGUUUUUUG [C13A G60A] | -1.95 |
| GACCAAUCUGCCAUCAGAGCUCGAGAACAUCUUCGCAUGCAGAGGAGGCAGGCUUCGGUGGCGCGAUACCGCCAACGUCCUCAACCUCCAAUGCAUCCCACCACAUGAUGAUGCCUGAAGAGCCUUGGUUUUUUG [C13A G36C G69C] | -2.94 |
| GACCAAUCUGCCAUCAGAGCUCGAGAACAUCUUCGGAUGCAGAGGAGGCAGGCUUCGGUGGCGCGAUAGCGCCAACGUCCUCAACCUCCAAUGCAUUCCACCACAUGAUGAUGCCUGAAGAGCCUUGGUUUUUUG [C13A C97U] | -2.68 |
| GACCAAUCUGCCAUCAGAGCUCGAGAACAUCUUCGGAUGCAGAGGAGGCAGGCUUCGGUGGCGCGAUAGCGCCAACGUCCUCAACCUCCAAUGCAUACCACCACAUGAUGAUGCCUGAAGAGCCUUGGUUUUUUG [C13A C97A] | -5.11 |
| GACCAAUCUGCCAUCAGAGCUCGAGAACAUCUUCGGAUGCAGAGGAGACAGGCUUCGGUGGCGCGAUAGCGCCAACGUCCUCAACCUCCAAUGCAUCCCACCACAUGAAGAUGCCUGAACAGCCUUGGUUUUUUG [C13A G48A U109A G120C] | -5.29 |
| GACCAAUCUGCCAUCAGAGCUCGAGAACAUCUUCGGAUGCAGAGGAGGCAGGCUUCGGUGGCGCGAUAGCGCCAACGUCCUCAACCUCCAAUGCAUCCCACCACAUGAUGAUGUCUGAAGAGCCUUGGUUUUUUG [C13A C114U] | -2.86 |
